Consider two molecules from patent US20090221029.

Data set [1] has as its system T1, Pyrococcus furiosus PCNA.
T1 sequence: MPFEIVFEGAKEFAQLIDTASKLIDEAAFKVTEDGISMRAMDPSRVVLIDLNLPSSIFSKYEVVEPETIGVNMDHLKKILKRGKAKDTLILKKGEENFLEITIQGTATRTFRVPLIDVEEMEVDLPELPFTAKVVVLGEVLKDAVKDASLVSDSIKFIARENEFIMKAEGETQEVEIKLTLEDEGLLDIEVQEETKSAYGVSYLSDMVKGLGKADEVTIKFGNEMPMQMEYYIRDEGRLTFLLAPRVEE

Data set [2] has as its target T2, Pyrococcus furiosus PCNA.
T2 chain: T1 sequence

Like-named read-outs stand apart in the source and are kept apart here.

Turning to “cloned Pfu DNA polymerase (Pyrococcus furiosus pol I)”, in the data set with Pyrococcus furiosus PCNA [1], the “dNTP incorporation into primed M13 DNA” value is “PCNA was shown to stimulate dNTP incorporation by both Pfu (pol I) and P. furiosus pol II DNA polymerases”.

B1: P. furiosus pol II DNA polymerase (recombinant CBP-DP1/DP2) (protein)
chain 1: MDEFVKSLLKANYLITPSAYYLLREYYEKGEFSIVELVKFARSRESYIITDALATEFLKVKGLEPILPVETKGGFVSTGESQKEQSYEESFGTKEEISQEIKEGESFISTGSEPLEEELNSIGIEEIGANEELVSNGNDNGGEAIVFDKYGYPMVYAPEEIEVEEKEYSKYEDLTIPMNPDFNYVEIKEDYDVVFDVRNVKLKPPKVKNGNGKEGEIIVEAYASLFRSRLKKLRKILRENPELDNVVDIGKLKYVKEDETVTIIGLVNSKREVNKGLIFEIEDLTGKVKVFLPKDSEDYREAFKVLPDAVVAFKGVYSKRGILYANKFYLPDVPLYRRQKPPLEEKVYAILISDIHVGSKEFCENAFIKFLEWLNGNVETKEEEEIVSRVKYLIIAGDVVDGVGVYPGQYADLTIPDIFDQYEALANLLSHVPKHITMFIAPGNHDAARQAIPQPEFYKEYAKPIYKLKNAVIISNPAVIRLHGRDFLIAHGRGIEDVVGSVPGLTHHKPGLPMVELLKMRHVAPMFGGKVPIAPDPEDLLVIEEVPDVVHMGHVHVYDAVVYRGVQLVNSATWQAQTEFQKMVNIVPTPAKVPVVDIDTAKVVKVLDFSGWC
chain 2: MELPKEIEEYFEMLQREIDKAYEIAKKARSQGKDPSTDVEIPQATDMAGRVESLVGPPGVAQRIRELLKEYDKEIVALKIVDEIIEGKFGDFGSKEKYAEQAVRTALAILTEGIVSAPLEGIADVKIKRNTWADNSEYLALYYAGPIRSSGGTAQALSVLVGDYVRRKLGLDRFKPSGKHIERMVEEVDLYHRAVSRLQYHPSPDEVRLAMRNIPIEITGEATDDVEVSHRDVEGVETNQLRGGAILVLAEGVLQKAKKLVKYIDKMGIDGWEWLKEFVEAKEKGEEIEESESKAEESKVETRVEVEKGFYYKLYEKFRAEIAPSEKYAKEIIGGRPLFAGPSENGGFRLRYGRSRVSGFATWSINPATMVLVDEFLAIGTQMKTERPGKGAVVTPATTAEGPIVKLKDGSVVRVDDYNLALKIRDEVEEILYLGDAIIAFGDFVENNQTLLPANYVEEWWIQEFVKAVNEAYEVELRPFEENPRESVEEAAEYLEVDPEFLAKMLYDPLRVKPPVELAIHFSEILEIPLHPYYTLYWNTVNPKDVERLWGVLKDKATIEWGTFRGIKFAKKIEISLDDLGSLKRTLELLGLPHTVREGIVVVDYPWSAALLTPLGNLEWEFKAKPFYTVIDIINENNQIKLRDRGISWIGARMGRPEKAKERKMKPPVQVLFPIGLAGGSSRDIKKAAEEGKIAEVEIAFFKCPKCGHVGPETLCPECGIRKELIWTCPKCGAEYTNSQAEGYSYSCPKCNVKLKPFTKRKIKPSELLNRAMENVKVYGVDKLKGVMGMTSGWKIAEPLEKGLLRAKNEVYVFKDGTIRFDATDAPITHFRPREIGVSVEKLRELGYTHDFEGKPLVSEDQIVELKPQDVILSKEAGKYLLRVARFVDDLLEKFYGLPRFYNAEKMEDLIGHLVIGLAPHTSAGIVGRIIGFVDALVGYAHPYFHAAKRRNCDGDEDSVMLLLDALLNFSRYYLPEKRGGKMDAPLVITTRLDPREVDSEVHNMDVVRYYPLEFYEATYELKSPKELVGVIERVEDRLGKPEMYYGIKFTHDTDDIALGPKMSLYKQLGDMEEKVKRQLTLAERIRAVDQHYVAETILNSHLIPDLRGNLRSFTRQEFRCVKCNTKYRRPPLDGKCPVCGGKIVLTVSKGAIEKYLGTAKMLVANYNVKPYTRQRICLTEKDIDSLFEYLFPEAQLTLIVDPNDICMKMIKERTGETVQGGLLENFNSSGNNGKKIEKKEKKAKEKPKKKKVISLDDFFSKR
B1: the “dNTP incorporation into primed M13 DNA” value with Pyrococcus furiosus PCNA [2] is “PCNA was shown to stimulate dNTP incorporation by both Pfu (pol I) and P. furiosus pol II DNA polymerases”.
